{"source": "paper PMC3805524", "about": "“GmSAL1 Hydrolyzes Inositol-1,4,5-Trisphosphate and Regulates Stomatal Closure in Detached Leaves and Ion Compartmentalization in Plant Cells” (PLoS ONE, 2013)", "substrate": "O=P(O)(O)O[C@@H]1[C@H](O)[C@H](O)[C@@H](OP(=O)(O)O)[C@H](OP(=O)(O)O)[C@H]1O", "experiment": "purified protein", "type": "biochemical, Glycine max", "conditions": "25 mM Tris-HCl pH 7.5, 1 mM MgCl2, 37°C, 30 min, IP3 0.0125-0.2 mM", "data": [{"protein": "GmSAL1 (Glycine max) (protein, cloning primers encode N-terminal MPYEKEF and C-terminal KVSSL) MPYEKEFAAAKKAATLAARLCKKVQKALLQSDVHSKSDKSPVTVADYGSQALVSFILERELPSEPFSLVAEEDSGDLRKESGQDTLKRITELVNDTLASEGSNSFSTLTTDDVLAAIDGGKSEGGSVGRHWVLDPIDGTKGFVRGDQYAIALALLDEGKVVLGVLACPNLPLASIGSNQQLSSSNEVGCLFFAKVGDGTYMQALGGSTQTRVHVCDIDNPEEASFFESFEAAHSSHDLSSSIAEKLGVKAPPVRIDSQAKYGALSRGDGAIYLRFPHKGYREKIWDHAAGSIVVTEAGGIAMDAAGNPLDFSKGKFLDVVSGIIVTNQKLKASLLRAVKEALNEKVSSL", "values": [{"measurement": "Km", "result": "10.8 ± 0.1", "unit": "µM"}, {"measurement": "kcat", "result": "1.13 ± 0.217", "unit": "s⁻¹"}]}]}
